Results taken from patent US20230295336A1 (INHIBRX, published 2023).

T1: B7H3 (CD276) (human, UniProt Q5ZPR3 29-534)
T1 construct: whole, on cells
T1 sequence (looked up): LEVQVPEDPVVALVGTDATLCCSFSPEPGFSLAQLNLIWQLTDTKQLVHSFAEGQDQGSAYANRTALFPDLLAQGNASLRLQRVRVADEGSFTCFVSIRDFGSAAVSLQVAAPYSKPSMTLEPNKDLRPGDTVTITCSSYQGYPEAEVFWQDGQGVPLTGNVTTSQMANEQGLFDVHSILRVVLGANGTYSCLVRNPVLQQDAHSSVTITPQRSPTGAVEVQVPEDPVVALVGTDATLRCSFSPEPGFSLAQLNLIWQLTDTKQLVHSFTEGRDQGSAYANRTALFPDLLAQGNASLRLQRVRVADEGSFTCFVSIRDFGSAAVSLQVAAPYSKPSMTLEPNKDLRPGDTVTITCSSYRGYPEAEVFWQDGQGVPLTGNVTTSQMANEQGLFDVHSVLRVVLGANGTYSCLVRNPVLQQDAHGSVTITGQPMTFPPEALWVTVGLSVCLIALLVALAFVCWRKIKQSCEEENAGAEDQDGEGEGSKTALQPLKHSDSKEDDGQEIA

B1: cx6079 (bispecific antibody)
chain 1: EVQLVESGGGEVQPGGSLRLSCAASGFSFSSNVMMWVRQAPGKGLEWVSTIYSSGTGTFYAESVKGRFTISRDNAKNTLYLQMSSLRPEDTAVYYCATSGPVRGWGPRSQGTLVTVKPPGGGGDKTHTCPPCPAPPVAGPSVFLFPPKPKDTLMISRTPEVTCVVVDVKHEDPEVKFNWYVDGVEVHNAKTKPREEEYNSTYRVVSVLTVLHQDWLNGKEYKCKVSNKALPAPIEKTISKAKGQPREPQVYTLPPSREEMTKNQVSLTCDVSGFYPSDIAVEWESDGQPENNYKTTPPVLDSDGSFFLYSKLTVDKSRWEQGDVFSCSVMHEALHNHYTQKSLSLSPGKGGGGSGGGGSGGGGSEVQLVESGGGLVQPGGSLRLSCAASGFTFSTYAMNWVRQAPGKGLEWVGRIRSKYNNYATYYADSVKGRFTISRDDSKNTLYLQMNSLRAEDTAVYYCVRHGNFGDSYVSWFAYWGQGTLVTVSS
chain 2: EVQLVESGGGEVQPGGSLRLSCAASGFSFSSNVMMWVRQAPGKGLEWVSTIYSSGTGTFYAESVKGRFTISRDNAKNTLYLQMSSLRPEDTAVYYCATSGPVRGWGPRSQGTLVTVKPPGGGGDKTHTCPPCPAPPVAGPSVFLFPPKPKDTLMISRTPEVTCVVVDVKHEDPEVKFNWYVDGVEVHNAKTKPREEQYNSTYRVVSVLTVLHQDWLNGKEYKCKVSNKALPAPIEKTISKAKGQPREPQVYTLPPSREQMTKNQVKLTCLVKGFYPSDIAVEWESNGQPENNYKTTPPVLDSDGSFFLYSKLTVDKSRWQQGNVFSCSVMHEALHNHYTQKSLSLSPGKGGGGSGGGGSGGGGSQAVVTQEPSLTVSPGGTVTLTCGSSTGAVTTSNYANWVQQKPGKSPRGLIGGTNKRAPGVPARFSGSLLGGKAALTISGAQPEDEADYYCALWYSNHWVFGGGTKLTVL
notes: Heterodimer of chain 1 and chain 2; anti-CD3 Fv not disulfide-stabilized; two identical B7H3 sdAbs, both N-terminal to the Fc; also called B7H3-targeting constrained CD3 engaging construct; sdAb-Fc-FV
B2: cx5952 (bispecific antibody)
chain 1: EVQLVESGGGEVQPGGSLRLSCAASGFSFSSNVMMWVRQAPGKGLEWVSTIYSSGTGTFYAESVKGRFTISRDNAKNTLYLQMSSLRPEDTAVYYCATSGPVRGWGPRSQGTLVTVKPPGGGGDKTHTCPPCPAPGGPSVFLFPPKPKDTLMISRTPEVTCVVVDVSHEDPEVKFNWYVDGVEVHNAKTKPREEQYNSTYRVVSVLTVLHQDWLNGKEYKCKVSNKALPAPIEKTISKAKGQPREPQVYTLPPCRDELTKNQVSLWCLVKGFYPSDIAVEWESNGQPENNYKTTPPVLDSDGSFFLYSKLTVDKSRWQQGNVFSCSVMHEALHNHYTQKSLSLSPGGGGGGSGGGGGSGGGGGSEVQLVESGGGLVQPGGSLRLSCAASGFTFNTYAMNWVRQAPGKCLEWVARIRSKYNNYATYYADSVKGRFTISRDDAKNTLYLQMSSLRAEDTAVYYCVRHGNFGNSYVSWFAYWGQGTLVTVKPGGGGEVQLVESGGGEVQPGGSLRLSCAASGFTFSSYHMSWFRQAPGKQRELVATSHHGGTTNYAGSVKGRFTISRDNAKNTVYLQMNTLRAEDTAVYYCKADHGYQGRGYWGQGTLVTVKP
chain 2: DKTHTCPPCPAPGGPSVFLFPPKPKDTLMISRTPEVTCVVVDVSHEDPEVKFNWYVDGVEVHNAKTKPREEQYNSTYRVVSVLTVLHQDWLNGKEYKCKVSNKALPAPIEKTISKAKGQPREPQVCTLPPSRDELTKNQVSLSCAVKGFYPSDIAVEWESNGQPENNYKTTPPVLDSDGSFFLVSKLTVDKSRWQQGNVFSCSVMHEALHNRYTQKSLSLSPGGGGGGSGGGGGSGGGGGSQAVVTQEPSLTVSPGGTVTLTCGSSTGAVTTSNYANWVQQKPGQAFRGLIGGTNKRAPGVPARFSGSLLGGKAALTISGAQPEDEADYYCALWYSNHWVFGCGTKLEIK
notes: Heterodimer of chain 1 and chain 2; anti-CD3 Fv disulfide-stabilized (VH G44C / VL G100C); also called B7H3-targeting constrained CD3 engaging construct; sdAb-Fc-dsFV-sdAb

Legend:
B7H3 (CD276) = target: T1, B7H3 (CD276); assay: flow cytometry on A375 cells
Description: (§1) Binding of exemplary multispecific constructs containing an antigen-binding domain directed against B7H3 were assessed for binding to B7H3 positive A375 tumor cells or primary T-cells. The constructs were generated containing antigen-binding domain(s) that were either sdAbs or a FABs, and that were positioned either only N-terminal to the Fc or both N-terminal to the Fc and C-terminal to the anti-CD3 binding domain (see FIGS. 3A and 3C and Table E1.1). Among the various formats of constructs tested included: sdAb-Fc-dsFV-sdAb (cx3072, cx5952) sdAb-Fc-FV (cx6079), sdAb-Fc-dsFV (cs6080, cx6081), MAB-FV (cx5067) and MAB-dsFV (cx6083, cx6084), where the FV represents the anti-CD3 binding domain composed of VH and VL domain pairs and “ds” notes disulfide stabilized via an engineered interdomain disulfide bond.
(§2) Binding was assessed as described above via flow cytometry using a fluorophore-conjugated anti-human Fc secondary antibody. cx3072 bound to A375 cells with high affinity (FIG. 6A) but not to isolated T-cells (FIG. 6B). […]

[1] = target: T2, CD3 on the surface of primary T cells (human, UniProt P07766 23-207); assay: flow cytometry on isolated T cells
T2 construct: whole, on cells; CD3 is a multimeric complex (ε, γ, δ, ζ chains) with the TCR; In the reporter assays CD3 stood on Jurkat cells; also called CD3ε
T2 sequence (P07766 23-207): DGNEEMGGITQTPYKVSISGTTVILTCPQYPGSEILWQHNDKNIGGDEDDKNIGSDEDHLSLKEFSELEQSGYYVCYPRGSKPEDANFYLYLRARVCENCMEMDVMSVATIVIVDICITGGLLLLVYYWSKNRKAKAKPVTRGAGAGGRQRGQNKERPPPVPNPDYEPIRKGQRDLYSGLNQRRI
Description: as §1, §2

Binder | binding result (B7H3 (CD276)) | binding result [1]
B1 | binds | no binding
B2 | – | no binding
